Reference: PMC4620744 (Molecular cell, 2015)

Molecular target: full-length H2A-H2B (S. cerevisiae, UniProt P04911 1-132; P02293 1-131)
Experiment: ITC

Kd: 300 nM
stoichiometry N: 1
B1: Pob3-C (domain or fragment)
chain: EVQERLQTALGSDSDEEDINMGSAGEDDESVDEDFQVSSDNDADEVAEEFDSDAALSDAEGGSDEERPSKKPKVE
